Assay results from patent US11504441B2, “Radiolabeled compounds targeting the prostate-specific membrane antigen” (PROVINCIAL HEALTH SERVICES AUTHORITY, priority 2019, dated 2022).

Test: in vivo
Parameters: species or system mice
Conditions: male, NODSCID 1L2RγKO, mouse, iv, total radioactivity

## O=C(O)CCC[C@H](NC(=O)N[C@@H](CCCCNC(=O)[C@H](Cc1c2ccccc2cc2ccccc12)NC(=O)[C@H]1CC[C@H](CNC(=O)[C@H](CCCCNC(=O)CN2CCN(CC(=O)O)CCN(CC(=O)O)CCN(CC(=O)O)CC2)NC(=O)CNC(=O)CCCc2ccc(Cl)cc2)CC1)C(=O)O)C(=O)O [177Lu-HTK03153, metal not drawn]
Adrenal glands uptake
  tissue uptake at 1 h: 4.52 ± 0.46 %ID/g
  tissue uptake at 4 h: 3.5 ± 0.46 %ID/g
  tissue uptake at 24 h: 2.35 ± 0.47 %ID/g
  tissue uptake at 72 h: 1.2 ± 0.26 %ID/g
  tissue uptake at 120 h: 0.82 ± 0.19 %ID/g
Blood uptake
  tissue uptake at 1 h: 24.7 ± 2.11 %ID/g
  tissue uptake at 4 h: 18.8 ± 1.16 %ID/g
  tissue uptake at 24 h: 7.44 ± 1.12 %ID/g
  tissue uptake at 72 h: 1.46 ± 0.58 %ID/g
  tissue uptake at 120 h: 0.37 ± 0.13 %ID/g
Bone uptake
  tissue uptake at 1 h: 1.26 ± 0.15 %ID/g
  tissue uptake at 4 h: 0.83 ± 0.15 %ID/g
  tissue uptake at 24 h: 0.4 ± 0.08 %ID/g
  tissue uptake at 72 h: 0.16 ± 0.06 %ID/g
  tissue uptake at 120 h: 0.06 ± 0.04 %ID/g
Brain uptake
  tissue uptake at 1 h: 0.35 ± 0.03 %ID/g
  tissue uptake at 4 h: 0.27 ± 0.03 %ID/g
  tissue uptake at 24 h: 0.13 ± 0.02 %ID/g
  tissue uptake at 72 h: 0.05 ± 0.02 %ID/g
  tissue uptake at 120 h: 0.03 %ID/g
Fat uptake
  tissue uptake at 1 h: 1.61 ± 0.36 %ID/g
  tissue uptake at 4 h: 1.46 ± 0.36 %ID/g
  tissue uptake at 24 h: 0.66 ± 0.16 %ID/g
  tissue uptake at 72 h: 0.3 ± 0.13 %ID/g
  tissue uptake at 120 h: 0.19 ± 0.09 %ID/g
Heart uptake
  tissue uptake at 1 h: 5.95 ± 0.44 %ID/g
  tissue uptake at 4 h: 4.26 ± 0.44 %ID/g
  tissue uptake at 24 h: 1.9 ± 0.25 %ID/g
  tissue uptake at 72 h: 0.68 ± 0.25 %ID/g
  tissue uptake at 120 h: 0.32 ± 0.07 %ID/g
Intestine uptake
  tissue uptake at 1 h: 1.56 ± 0.16 %ID/g
  tissue uptake at 4 h: 1.22 ± 0.16 %ID/g
  tissue uptake at 24 h: 0.78 ± 0.1 %ID/g
  tissue uptake at 72 h: 0.3 ± 0.1 %ID/g
  tissue uptake at 120 h: 0.18 ± 0.08 %ID/g
Kidneys uptake
  tissue uptake at 1 h: 10 ± 1.09 %ID/g
  tissue uptake at 4 h: 9.1 ± 1.09 %ID/g
  tissue uptake at 24 h: 8.81 ± 1.06 %ID/g
  tissue uptake at 72 h: 4.95 ± 2.39 %ID/g
  tissue uptake at 120 h: 2.81 ± 0.35 %ID/g
Lacrimal uptake
  tissue uptake at 1 h: 0.35 ± 0.07 %ID/g
  tissue uptake at 4 h: 0.35 ± 0.14 %ID/g
  tissue uptake at 24 h: 0.18 ± 0.06 %ID/g
  tissue uptake at 72 h: 0.05 ± 0.05 %ID/g
  tissue uptake at 120 h: 0.02 ± 0.02 %ID/g
Liver uptake
  tissue uptake at 1 h: 3.61 ± 0.65 %ID/g
  tissue uptake at 4 h: 3.19 ± 0.65 %ID/g
  tissue uptake at 24 h: 1.52 ± 0.25 %ID/g
  tissue uptake at 72 h: 0.73 ± 0.21 %ID/g
  tissue uptake at 120 h: 0.4 ± 0.03 %ID/g
Lungs uptake
  tissue uptake at 1 h: 10.8 ± 1.38 %ID/g
  tissue uptake at 4 h: 9.4 ± 1.38 %ID/g
  tissue uptake at 24 h: 3.93 ± 0.41 %ID/g
  tissue uptake at 72 h: 1.87 ± 1.31 %ID/g
  tissue uptake at 120 h: 0.56 ± 0.12 %ID/g
Muscle uptake
  tissue uptake at 1 h: 1.54 ± 0.16 %ID/g
  tissue uptake at 4 h: 1.19 ± 0.16 %ID/g
  tissue uptake at 24 h: 0.56 ± 0.1 %ID/g
  tissue uptake at 72 h: 0.18 ± 0.07 %ID/g
  tissue uptake at 120 h: 0.07 ± 0.01 %ID/g
Pancreas uptake
  tissue uptake at 1 h: 2.17 ± 0.21 %ID/g
  tissue uptake at 4 h: 1.6 ± 0.21 %ID/g
  tissue uptake at 24 h: 0.77 ± 0.09 %ID/g
  tissue uptake at 72 h: 0.29 ± 0.13 %ID/g
  tissue uptake at 120 h: 0.15 ± 0.04 %ID/g
Salivary uptake
  tissue uptake at 1 h: 3.56 ± 0.39 %ID/g
  tissue uptake at 4 h: 2.86 ± 0.39 %ID/g
  tissue uptake at 24 h: 1.25 ± 0.14 %ID/g
  tissue uptake at 72 h: 0.68 ± 0.22 %ID/g
  tissue uptake at 120 h: 0.37 ± 0.04 %ID/g
Seminal uptake
  tissue uptake at 1 h: 1.3 ± 0.32 %ID/g
  tissue uptake at 4 h: 1.2 ± 0.32 %ID/g
  tissue uptake at 24 h: 0.7 ± 0.5 %ID/g
  tissue uptake at 72 h: 0.23 ± 0.11 %ID/g
  tissue uptake at 120 h: 0.15 ± 0.05 %ID/g
Spleen uptake
  tissue uptake at 1 h: 2.54 ± 0.27 %ID/g
  tissue uptake at 4 h: 1.54 ± 0.27 %ID/g
  tissue uptake at 24 h: 1.21 ± 0.24 %ID/g
  tissue uptake at 72 h: 1.03 ± 0.46 %ID/g
  tissue uptake at 120 h: 1.53 ± 0.71 %ID/g
Stomach uptake
  tissue uptake at 1 h: 0.89 ± 0.15 %ID/g
  tissue uptake at 4 h: 0.71 ± 0.15 %ID/g
  tissue uptake at 24 h: 0.68 ± 0.15 %ID/g
  tissue uptake at 72 h: 0.31 ± 0.17 %ID/g
  tissue uptake at 120 h: 0.15 ± 0.1 %ID/g
Tail uptake
  tissue uptake at 1 h: 5.38 ± 5.96 %ID/g
  tissue uptake at 4 h: 6.89 ± 5.96 %ID/g
  tissue uptake at 24 h: 1.55 ± 0.34 %ID/g
  tissue uptake at 72 h: 0.44 ± 0.15 %ID/g
  tissue uptake at 120 h: 0.24 ± 0.04 %ID/g
Testes uptake
  tissue uptake at 1 h: 3.24 ± 0.4 %ID/g
  tissue uptake at 4 h: 3.45 ± 0.4 %ID/g
  tissue uptake at 24 h: 2.15 ± 0.33 %ID/g
  tissue uptake at 72 h: 1.38 ± 0.48 %ID/g
  tissue uptake at 120 h: 0.98 ± 0.22 %ID/g
Thyroid uptake
  tissue uptake at 1 h: 4.8 ± 0.32 %ID/g
  tissue uptake at 4 h: 3.57 ± 0.32 %ID/g
  tissue uptake at 24 h: 1.95 ± 0.32 %ID/g
  tissue uptake at 72 h: 0.85 ± 0.28 %ID/g
  tissue uptake at 120 h: 0.52 ± 0.12 %ID/g
Tumor uptake
  tissue uptake at 1 h: 14.2 ± 7.67 %ID/g
  tissue uptake at 4 h: 27.9 ± 7.67 %ID/g
  tissue uptake at 24 h: 57.2 ± 10.1 %ID/g
  tissue uptake at 72 h: 69.1 ± 13.4 %ID/g
  tissue uptake at 120 h: 86.4 ± 8.05 %ID/g
